Measured values from US20250136699A1 (JIANGSU BIOJETAY BIOTECHNOLOGY, published 2025).
Changes are numbered by the printed parent chain. Like-named read-outs stand apart in the source and are kept apart here.

T1: Rattus norvegicus FcRn-alpha (rat, UniProt P13599 23-298)
T1 construct: Alpha chain alone; also called rFcRn; rat FcRn; not shown: His tag and Avi tag
T1 sequence: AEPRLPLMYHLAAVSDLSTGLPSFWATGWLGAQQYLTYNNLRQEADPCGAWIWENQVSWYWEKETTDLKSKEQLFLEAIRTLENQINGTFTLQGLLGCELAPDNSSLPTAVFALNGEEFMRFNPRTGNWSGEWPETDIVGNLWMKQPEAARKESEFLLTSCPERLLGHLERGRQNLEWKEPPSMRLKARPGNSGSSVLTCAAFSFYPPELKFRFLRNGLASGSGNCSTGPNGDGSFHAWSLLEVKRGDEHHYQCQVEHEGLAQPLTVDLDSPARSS

B1: Rozanolixizumab (antibody, part only; not given: Constant regions, V domains shown, not shown: another chain or arm of the molecule)
VH: EVPLVESGGGLVQPGGSLRLSCAVSGFTFSNYGMVWVRQAPGKGLEWVAYIDSDGDNTYYRDSVKGRFTISRDNAKSSLYLQMNSLRAEDTAVYYCTTGIVRPFLYWGQGTLVTVSS
VL: DIQMTQSPSSLSASVGDRVTITCKSSQSLVGASGKTYLYWLFQKPGKAPKRLIYLVSTLDSGIPSRFSGSGSGTEFTLTISSLQPEDFATYYCLQGTHFPHTFGQGTKLEIK
B2: ZLP1-3-2F (antibody, V domains shown)
VH: QVQLQESGPGLVKPSETLSLTCAVSGYSFTSGYSWHWIRQPPGKGLEWIGYIHDSGGTNYNPSLKSRVTISRDTSKNQFSLKLSSVTAADTAVYYCAREENYRYFDVWGQGTLVTVSS
VL: EIVLTQSPATLSLSPGERATLSCSASSSVSYMHWFQQKPGQSPRLLIYSTSNLASGIPARFSGSGSGTDFTLTISSLEPEDFAVYYCQQRSSYPPTFGQGTKVEIK
B3: ZLP1-3-2M (antibody, V domains shown)
VH: B2 VH with A23T, S25T
VL: B2 VL
B4: ZLP37 (antibody, V domains shown)
VH: EVQLQQSGVELARPGASVKMSCKASGYTFSSYAMQWVKKRPGQGLEWIGYINPGTGYTNYNQKFKDKATLTADKSSSTAYMHLSSLTSEDSAVYFCARGGGLRGAMDYWGQGTSVTVSS
VL: DIVLTQSPALMSASPGEKVTMTCSANSSVNYMYWYQQKPGSSPKLWIYSTSNLASGVPARFSGSGSGTSYSLTISSMEAEDAATYYCHQRSSYPWTFGGGTKLEIK
notes: Full-length chimeric antibody with human IgG1 or IgG4 heavy constant and human kappa or lambda light constant domain

Experiments:
[1] = target: Human recombinant FCGRT & B2M Heterodimer Protein (hFcRn) (human) (UniProt P55899); assay: ELISA, hFcRn coated at 1 ug/mL, antibody titrated, anti-human IgG Fab-HRP
[2] = target: T2, human FCGRT (human, UniProt P55899 24-297, biotinylated (Avi tag) in the blocking assays); assay: competition ELISA: human IgG coated, biotinylated human FCGRT plus antibody, SA-HRP
T2 construct: Alpha chain alone, expressed in Expi293 cells with His and Avi tags; also called FCGRT of human FcRn protein; biotinylated human FCGRT; not shown: His tag and Avi tag

[3] = target: T2, human FCGRT; assay: as above; remark: listed apart in the source
[4] = target: T2, human FCGRT; assay: ELISA: human FCGRT coated, antibody titrated, goat anti-human IgG Fab-HRP, OD450
[5] = target: human FcRn (human FCGRT and B2M) on stably transfected MDCK cells (human) (UniProt P55899); assay: cell-based or functional assay
[6] = target: T3, Cynomolgus monkey FcRn-alpha (cynomolgus monkey, UniProt Q8SPV9 24-297, limits assumed); assay: ELISA: cynoFcRn coated, antibody titrated, goat anti-human IgG Fab-HRP, OD450
T3 construct: The printed entry looks like the full-length precursor (signal peptide, transmembrane and cytoplasmic parts); also called cynoFcRn; not shown: His tag and Avi tag

[7] = target: T2, human FCGRT; assay: ELISA: human FCGRT coated, antibody titrated, goat anti-human IgG Fab-HRP, OD450; remark: listed apart in the source
[8] = target: human FcRn (human FCGRT and B2M) on stably transfected MDCK cells (human) (UniProt P55899); assay: cell-based or functional assay; remark: listed apart in the source
[9] = target: T2, human FCGRT; assay: ELISA on coated human FCGRT, IgG4 antibody titrated
Method: (§1) Measurement of the binding specificity of anti-FcRn antibodies to FCGRT and B2M by EILSA: Briefly, human FCGRT or B2M was coated on a 96-well plate at 4° C. overnight, after removing the coating solution, a blocking buffer containing 1% BSA was added into the plates followed by incubation at room temperature for 1 hour to block unspecific binding. Plates were then washed with wash buffer, and serial dilutions of anti-FcRn antibodies were added to the wells and incubated at room temperature for 1 hour. […] The wells were washed before adding 100 μL/well of TMB and incubated for 5-10 minutes at 37° C. 2M H₂SO₄ was used to stop the reaction. […] The ELISA results (OD450) were analyzed, and the binding curves were generated by Graphpad PRISM.

[10] = target: T4, human B2M (human, UniProt P61769 21-119, limits assumed); assay: ELISA: human B2M coated, antibody titrated, OD450
T4 construct: also called beta-2-microglobulin; not shown: His tag and Avi tag

[11] = target: T2, human FCGRT; assay: competition ELISA: human IgG coated, biotinylated human FCGRT plus antibody, SA-HRP; remark: listed apart in the source
Method: (§2) After removing the coating solution, the wells were blocked with a blocking buffer containing 1% BSA at room temperature for 1 hour. Plates were then washed with wash buffer. […] After incubation, 100 μL of SA-HRP (1:20,000) was added to each well and incubated for 1 hour at 37° C. The wells were washed before adding 100 μL/well of TMB and incubated for 5-10 minutes at 37° C. 2M H₂SO₄ was used to stop the reaction. […] The ELISA results (OD450) were analyzed, and the binding curves were generated by PRISM.

[12] = target: T3, Cynomolgus monkey FcRn-alpha; assay: ELISA on coated cynoFcRn, IgG4 antibody titrated
Method: (§3) hFcRn binding of purified full-length chimeric antibodies: The hFcRn antigen binding ELISA was performed on the purified full-length chimeric antibodies (reformatted as IgG4). Briefly, plates were coated overnight at 4° C. with 1 μg/mL of hFcRn (cat #CT009-H08H) in PBS. After removing the coating solution, the wells were blocked by adding blocking buffer and incubated at room temperature for 1 hour. Plates were then washed 6 times with wash buffer. Serial dilutions of purified antibodies in PBS were added to individual wells followed by incubation at room temperature for 1 hour. Plates were washed 6 times with wash buffer. […] Plates were incubated at 37° C. for 1 hour, washed 6 times with wash buffer, and developed for 5-10 minutes with 50 L/well of TMB substrate, then quenched with 2M H₂SO₄. […] The ELISA results (OD450) were analyzed, and the binding curves were generated by Graphpad PRISM.
(§4) Analysis of cross-reactivity to FcRn from different species: To examine whether the anti-FcRn antibodies bind to FcRn from different species, antigen binding ELISA assays were performed as described above except that cynoFcRn, mFcRn, or rFcRn was used in the assay instead of hFcRn.

[13] = target: T5, Human recombinant FCGRT & B2M Heterodimer Protein (hFcRn) (human, UniProt P55899 24-297; P61769 21-119); assay: ELISA on coated hFcRn, IgG4 antibody titrated
T5 construct: Bought protein; also called human FcRn
Method: as §3

[14] = target: T5, Human recombinant FCGRT & B2M …; assay: SPR, Biacore T200, antibody (IgG4) on CM5 chip, hFcRn in solution, pH 6.0
Method: The anti-FcRn antibodies were stabilized on sensor chip CM5. The affinities for hFcRn of antibodies at various concentrations were measured. […] Using the SPR technology, the association and dissociation rates were measured, and binding affinity was determined.

[15] = target: T6, human FcRn (human FCGRT and B2M) on stably transfected MDCK cells (human, UniProt P55899 24-365; P61769 21-119); assay: cell-based or functional assay
[16] = target: T2, human FCGRT; assay: blocking ELISA: human IgG coated, biotinylated human FCGRT plus titrated antibody, SA-HRP, OD450; blocked ligand: human IgG
Method: as §2

[17] = target: T1, Rattus norvegicus FcRn-alpha; assay: ELISA: rFcRn coated, antibody titrated, goat anti-human IgG Fab-HRP, OD450
Method: as §3, §4

[18] = target: T5, Human recombinant FCGRT & B2M …; assay: ELISA: hFcRn coated (1 ug/mL), antibody (IgG4) titrated, goat anti-human IgG Fab-HRP, OD450
Method: as §3

[19] = target: T2, human FCGRT; assay: ELISA: human FCGRT coated, antibody titrated, goat anti-human IgG Fab-HRP, OD450; remark: listed apart in the source
Method: as §1

[20] = target: T4, human B2M; assay: ELISA: human B2M coated, antibody titrated, OD450; remark: listed apart in the source
Method: as §1

[21] = target: T6, human FcRn (human FCGRT and B2M) on …; assay: cell-based or functional assay; remark: listed apart in the source

T2 sequence (P55899 24-297 limits assumed): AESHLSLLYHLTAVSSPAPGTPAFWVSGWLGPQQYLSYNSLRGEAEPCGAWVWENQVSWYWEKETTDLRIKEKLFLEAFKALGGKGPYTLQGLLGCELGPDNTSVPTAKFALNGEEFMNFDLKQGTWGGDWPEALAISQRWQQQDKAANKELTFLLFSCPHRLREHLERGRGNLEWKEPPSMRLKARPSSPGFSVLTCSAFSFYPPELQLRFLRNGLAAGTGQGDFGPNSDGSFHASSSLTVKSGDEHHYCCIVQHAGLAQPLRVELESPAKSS
T5 sequence (P55899 24-297 limits assumed, chain 1 of 2): as the sequence (P55899 24-297 limits assumed) above
T5 sequence (P61769 21-119 limits assumed, chain 2 of 2): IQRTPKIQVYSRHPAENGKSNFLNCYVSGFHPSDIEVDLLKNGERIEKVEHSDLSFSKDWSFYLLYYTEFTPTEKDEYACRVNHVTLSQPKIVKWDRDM
T3 sequence (Q8SPV9 24-297 limits assumed): as the sequence (P55899 24-297 limits assumed) above, with N39D, E44Q, G99S, S189G, S190N, L217M, S269T counted along it
T6 sequence (P55899 24-365, chain 1 of 2): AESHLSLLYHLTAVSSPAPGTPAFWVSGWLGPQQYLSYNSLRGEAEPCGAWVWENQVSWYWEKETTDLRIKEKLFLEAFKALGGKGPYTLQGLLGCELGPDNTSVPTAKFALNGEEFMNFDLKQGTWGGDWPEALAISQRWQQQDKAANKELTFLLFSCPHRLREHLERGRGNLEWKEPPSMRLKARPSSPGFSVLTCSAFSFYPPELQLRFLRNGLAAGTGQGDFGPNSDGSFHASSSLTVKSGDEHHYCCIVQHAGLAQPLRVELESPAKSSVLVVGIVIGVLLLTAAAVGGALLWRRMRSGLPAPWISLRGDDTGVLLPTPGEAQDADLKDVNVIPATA
T6 sequence (P61769 21-119, chain 2 of 2): as the sequence (P61769 21-119 limits assumed, chain 2 of 2) above
T4 sequence (P61769 21-119 limits assumed): as the sequence (P61769 21-119 limits assumed, chain 2 of 2) above
Chain of human FcRn (human FCGRT and B2M) on stably transfected MDCK cells (human) (P55899 24-365, chain 1 of 2): as the sequence (P55899 24-365, chain 1 of 2) above
Chain of human FcRn (human FCGRT and B2M) on stably transfected MDCK cells (human) (P61769 21-119, chain 2 of 2, further chain): as the sequence (P61769 21-119 limits assumed, chain 2 of 2) above
Chain of Human recombinant FCGRT & B2M Heterodimer Protein (hFcRn) (human) (P55899 24-297 limits assumed, chain 1 of 2): as the sequence (P55899 24-297 limits assumed) above
Chain of Human recombinant FCGRT & B2M Heterodimer Protein (hFcRn) (human) (P61769 21-119 limits assumed, chain 2 of 2, further chain): as the sequence (P61769 21-119 limits assumed, chain 2 of 2) above

Row | Binder | EC50 (read off the curve) [6] [nM] | EC50 [9] [nM] | binding result [10] | IC50 [11] [nM] | EC50 [12] [nM] | EC50 [13] [nM] | Kd [14] [nM] | IgG Recycle IC50 [15] [nM] | other results
1 | B1 | 0.2 |  |  |  |  |  |  |  | EC50 [1]: 1.04 nM; IC50 [2]: 10.9 nM; IC50 [3]: 11.6 nM; EC50 (read off the curve) [4]: 10 nM; IgG Recycle IC50 [5]: 7.8 nM; EC50 (read off the curve) [7]: 0.1 nM; IgG Recycle IC50 [8]: 11.8 nM
2 | B2 |  | 1.02 | no binding (tested: about 700 nM (Log[Ab] about 2.8)) | 5.77 | 2.06 | 6.63 | 0.609 | 8.36 | 
3 | B3 |  | 1.22 | no binding (tested: about 700 nM (Log[Ab] about 2.8)) | 5.12 | 2.82 | 3.11 | 0.493 | 11.9 | koff [14]: 0.00184 s⁻¹; kon [14]: 3.73e+06 M⁻¹ s⁻¹
4 | B4 | ~6 |  |  |  |  |  |  |  | IC50 (read off the curve) [16]: ~40 nM; binding result [17]: no binding (tested: about 700 nM (Log[Ab] about 2.8)); EC50 (read off the curve) [18]: ~9 nM; EC50 (read off the curve) [19]: ~20 nM; binding result [20]: no binding (tested: about 700 nM (Log[Ab] about 2.8)); IgG Recycle IC50 [21]: 3.12 nM
